According to publication PMC11239673, “Structural basis for the bi-specificity of USP25 and USP28 inhibitors” (EMBO Reports, 2024):
Several values for one entry are separate records, joined by “and”; a condition that tells them apart may be missing. Equal values may be shown once.

Legend:
Conditions in all cases: remark: other sources report otherwise
[1] = biological target: T1, full-length USP25 (USP25 1-1055) (human), Q9UHP3; assay: SEC-MALS; tetramer to dimers; 20 µM USP25fl with 60 µM AZ1, 45 min incubation at 4 °C; Superose 6 10/300 GL; 20 mM HEPES pH 8.0, 150 mM NaCl, 1 mM TCEP
T1 chain: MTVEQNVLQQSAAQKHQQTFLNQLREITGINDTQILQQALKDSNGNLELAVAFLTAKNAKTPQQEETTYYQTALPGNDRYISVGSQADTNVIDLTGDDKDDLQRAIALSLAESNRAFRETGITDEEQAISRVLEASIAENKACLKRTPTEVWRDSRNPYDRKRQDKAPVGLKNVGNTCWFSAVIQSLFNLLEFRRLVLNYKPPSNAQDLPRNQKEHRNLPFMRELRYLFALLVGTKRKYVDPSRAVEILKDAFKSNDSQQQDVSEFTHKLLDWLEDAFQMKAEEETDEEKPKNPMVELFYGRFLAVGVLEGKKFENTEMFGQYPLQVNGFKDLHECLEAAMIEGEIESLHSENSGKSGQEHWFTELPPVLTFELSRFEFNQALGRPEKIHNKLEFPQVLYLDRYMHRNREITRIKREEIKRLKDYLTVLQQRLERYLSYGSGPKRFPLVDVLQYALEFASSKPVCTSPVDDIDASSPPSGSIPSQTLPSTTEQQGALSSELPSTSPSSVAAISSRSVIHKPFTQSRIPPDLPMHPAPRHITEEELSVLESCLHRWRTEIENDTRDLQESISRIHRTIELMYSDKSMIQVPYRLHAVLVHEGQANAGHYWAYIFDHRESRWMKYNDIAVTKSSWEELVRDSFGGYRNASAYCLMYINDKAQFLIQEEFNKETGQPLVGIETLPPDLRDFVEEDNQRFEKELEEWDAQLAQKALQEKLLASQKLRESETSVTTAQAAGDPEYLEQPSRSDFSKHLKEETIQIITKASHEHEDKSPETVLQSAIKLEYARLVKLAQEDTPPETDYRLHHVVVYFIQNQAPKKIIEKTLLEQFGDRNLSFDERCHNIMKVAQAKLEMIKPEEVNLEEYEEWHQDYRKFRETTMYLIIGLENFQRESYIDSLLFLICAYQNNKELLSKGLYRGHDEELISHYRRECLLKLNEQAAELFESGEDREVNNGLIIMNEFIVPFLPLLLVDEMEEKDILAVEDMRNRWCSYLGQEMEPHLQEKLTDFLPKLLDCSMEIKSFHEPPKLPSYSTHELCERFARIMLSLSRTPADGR

[2] = biological target: T1, full-length USP25 (USP25 1-1055) …; assay: SEC-MALS; tetramer to dimers; 20 µM USP25fl with 60 µM VSM, 45 min incubation at 4 °C; Superose 6 10/300 GL; 20 mM HEPES pH 8.0, 150 mM NaCl, 1 mM TCEP
[3] = biological target: T1, full-length USP25 (USP25 1-1055) …; assay: SEC-MALS; tetramer to dimers; 10 µM USP25fl with DMSO control, 45 min incubation at 4 °C; Superose 6 10/300 GL; 20 mM HEPES pH 8.0, 150 mM NaCl, 1 mM TCEP
[4] = biological target: T1, full-length USP25 (USP25 1-1055) …; assay: SEC-MALS; tetramer to dimers; 20 µM USP25fl with DMSO control, 45 min incubation at 4 °C; Superose 6 10/300 GL; 20 mM HEPES pH 8.0, 150 mM NaCl, 1 mM TCEP
[5] = biological target: T1, full-length USP25 (USP25 1-1055) …; assay: SEC-MALS; tetramer to dimers; 10 µM USP25fl with 5, 10 or 20 µM AZ1, 45 min incubation at 4 °C; Superose 6 10/300 GL; 20 mM HEPES pH 8.0, 150 mM NaCl, 1 mM TCEP
[6] = biological target: T1, full-length USP25 (USP25 1-1055) …; assay: SEC-MALS; tetramer to dimers; 20 µM USP25fl with 60 µM racemic FT206, 45 min incubation at 4 °C; Superose 6 10/300 GL; 20 mM HEPES pH 8.0, 150 mM NaCl, 1 mM TCEP
[7] = biological target: T1, full-length USP25 (USP25 1-1055) …; assay: SEC-MALS; tetramer to dimers; 10 µM USP25fl with 5, 10 or 20 µM racemic FT206, 45 min incubation at 4 °C; Superose 6 10/300 GL; 20 mM HEPES pH 8.0, 150 mM NaCl, 1 mM TCEP

B1: full-length USP25 (USP25 1-1055), Q9UHP3 1-1055 (enzyme)
chain: T1 chain
- percent dimers (with 60 µM AZ1) [1]: 80.8%
- percent dimers (with 60 µM VSM) [2]: 75%
- percent dimers [3]: 25%
- percent dimers (DMSO control of the AZ1 series) [3]: 23%
- percent dimers (DMSO control of the FT206 series) [3]: 28%
- percent tetramers [3]: 75%
- stoichiometry N [3]: 4 and 2
- percent dimers (DMSO control) [4]: 26.2%
- percent dimers (with 20 µM AZ1) [5]: 46%
- percent dimers (with 60 µM FT206) [6]: 77.7%
- percent dimers (with 10 µM FT206) [7]: 50%
- percent dimers (with 20 µM FT206) [7]: 76%
